Data: patent US11965039B2, “Compstatin analogues and their medical uses” (priority 2018, dated 2024)
Positions of bridges follow the written chain, without caps; N, C: chain ends. Non-standard residues stand in square brackets, D forms with d. Trp(1-Me) = Cn1cc(C[C@H](N)C(=O)O)c2ccccc21; Sar = CNCC(=O)O

Molecular target: Human C3 (Complement tech cat #A113c) (human, UniProt P01024 23-1663)
Test: cell-based or functional assay

Sequence of Human C3 (Complement tech cat #A113c) (P01024 23-1663 limits assumed): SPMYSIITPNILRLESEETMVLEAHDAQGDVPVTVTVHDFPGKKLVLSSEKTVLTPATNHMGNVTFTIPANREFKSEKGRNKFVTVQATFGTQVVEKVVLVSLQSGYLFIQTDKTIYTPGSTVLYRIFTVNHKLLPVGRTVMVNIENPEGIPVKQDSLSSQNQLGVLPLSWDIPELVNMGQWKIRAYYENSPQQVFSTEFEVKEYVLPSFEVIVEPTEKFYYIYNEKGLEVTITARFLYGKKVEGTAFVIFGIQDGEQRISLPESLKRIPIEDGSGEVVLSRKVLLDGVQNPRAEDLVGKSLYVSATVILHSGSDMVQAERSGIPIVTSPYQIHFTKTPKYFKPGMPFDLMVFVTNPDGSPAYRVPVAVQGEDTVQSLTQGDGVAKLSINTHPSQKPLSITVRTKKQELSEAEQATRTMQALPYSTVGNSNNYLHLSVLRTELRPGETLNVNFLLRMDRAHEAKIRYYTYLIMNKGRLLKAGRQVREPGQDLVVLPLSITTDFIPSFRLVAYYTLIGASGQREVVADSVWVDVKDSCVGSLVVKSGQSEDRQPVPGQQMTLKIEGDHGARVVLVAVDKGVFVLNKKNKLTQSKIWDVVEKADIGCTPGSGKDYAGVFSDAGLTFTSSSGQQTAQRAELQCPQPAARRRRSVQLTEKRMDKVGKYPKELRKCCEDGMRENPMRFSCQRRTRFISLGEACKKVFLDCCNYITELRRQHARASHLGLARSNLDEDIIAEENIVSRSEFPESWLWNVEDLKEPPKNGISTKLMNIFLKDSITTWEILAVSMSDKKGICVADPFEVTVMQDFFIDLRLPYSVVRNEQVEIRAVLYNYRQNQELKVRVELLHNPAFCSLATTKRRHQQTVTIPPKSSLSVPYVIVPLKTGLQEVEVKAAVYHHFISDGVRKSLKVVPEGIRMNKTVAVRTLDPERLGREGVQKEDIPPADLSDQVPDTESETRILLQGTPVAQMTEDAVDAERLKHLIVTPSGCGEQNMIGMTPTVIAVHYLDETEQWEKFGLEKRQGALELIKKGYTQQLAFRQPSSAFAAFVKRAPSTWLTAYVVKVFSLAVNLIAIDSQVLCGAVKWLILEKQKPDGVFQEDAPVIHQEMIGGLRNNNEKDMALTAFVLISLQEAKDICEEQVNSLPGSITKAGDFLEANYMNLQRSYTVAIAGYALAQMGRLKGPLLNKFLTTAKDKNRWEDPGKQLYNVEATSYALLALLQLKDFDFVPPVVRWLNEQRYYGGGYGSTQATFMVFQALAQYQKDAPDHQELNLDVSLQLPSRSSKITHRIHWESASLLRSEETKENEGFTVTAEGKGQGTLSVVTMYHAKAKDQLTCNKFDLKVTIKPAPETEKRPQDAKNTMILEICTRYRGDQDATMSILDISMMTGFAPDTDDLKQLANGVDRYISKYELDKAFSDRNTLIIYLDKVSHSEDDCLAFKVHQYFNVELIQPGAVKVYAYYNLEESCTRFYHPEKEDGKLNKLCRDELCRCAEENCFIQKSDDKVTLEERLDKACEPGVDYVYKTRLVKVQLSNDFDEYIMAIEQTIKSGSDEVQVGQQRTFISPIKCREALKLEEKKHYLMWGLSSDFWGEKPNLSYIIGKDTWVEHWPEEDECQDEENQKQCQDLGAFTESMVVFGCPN

Binder | inhibition of hemolysis IC50 [nM]
Ac-YCI[Trp(1-Me)]QDWGEHRCTEAGS-NH2 (disulfide 2-12; SMILES CC[C@H](C)[C@@H]1NC(=O)[C@@H](NC(=O)[C@H](Cc2ccc(O)cc2)NC(C)=O)CSSC[C@@H](C(=O)N[C@H](C(=O)N[C@@H](CCC(=O)O)C(=O)N[C@@H](C)C(=O)NCC(=O)N[C@@H](CO)C(N)=O)[C@@H](C)O)NC(=O)[C@H](CCCNC(=N)N)NC(=O)[C@H](Cc2c[nH]cn2)NC(=O)[C@H](CCC(=O)O)NC(=O)CNC(=O)[C@H](Cc2c[nH]c3ccccc23)NC(=O)[C@H](CC(=O)O)NC(=O)[C@H](CCC(N)=O)NC(=O)[C@H](Cc2cn(C)c3ccccc23)NC1=O) [Compound 68] | < 100
Ac-YCI[Trp(1-Me)]QDWGEHRCTESGA-NH2 (disulfide 2-12; SMILES CC[C@H](C)[C@@H]1NC(=O)[C@@H](NC(=O)[C@H](Cc2ccc(O)cc2)NC(C)=O)CSSC[C@@H](C(=O)N[C@H](C(=O)N[C@@H](CCC(=O)O)C(=O)N[C@@H](CO)C(=O)NCC(=O)N[C@@H](C)C(N)=O)[C@@H](C)O)NC(=O)[C@H](CCCNC(=N)N)NC(=O)[C@H](Cc2c[nH]cn2)NC(=O)[C@H](CCC(=O)O)NC(=O)CNC(=O)[C@H](Cc2c[nH]c3ccccc23)NC(=O)[C@H](CC(=O)O)NC(=O)[C@H](CCC(N)=O)NC(=O)[C@H](Cc2cn(C)c3ccccc23)NC1=O) [Compound 69] | < 100
Ac-EGSAYCI[Trp(1-Me)]QEWGEHRC[Sar]E-NH2 (disulfide 6-16; SMILES CC[C@H](C)[C@@H]1NC(=O)[C@@H](NC(=O)[C@H](Cc2ccc(O)cc2)NC(=O)[C@H](C)NC(=O)[C@H](CO)NC(=O)CNC(=O)[C@H](CCC(=O)O)NC(C)=O)CSSC[C@@H](C(=O)N(C)CC(=O)N[C@@H](CCC(=O)O)C(N)=O)NC(=O)[C@H](CCCNC(=N)N)NC(=O)[C@H](Cc2c[nH]cn2)NC(=O)[C@H](CCC(=O)O)NC(=O)CNC(=O)[C@H](Cc2c[nH]c3ccccc23)NC(=O)[C@H](CCC(=O)O)NC(=O)[C@H](CCC(N)=O)NC(=O)[C@H](Cc2cn(C)c3ccccc23)NC1=O) [Compound 70] | < 100
Ac-SEYCI[Trp(1-Me)]QDWGEHRC[Sar]EA-NH2 (disulfide 4-14; SMILES CC[C@H](C)[C@@H]1NC(=O)[C@@H](NC(=O)[C@H](Cc2ccc(O)cc2)NC(=O)[C@H](CCC(=O)O)NC(=O)[C@H](CO)NC(C)=O)CSSC[C@@H](C(=O)N(C)CC(=O)N[C@@H](CCC(=O)O)C(=O)N[C@@H](C)C(N)=O)NC(=O)[C@H](CCCNC(=N)N)NC(=O)[C@H](Cc2c[nH]cn2)NC(=O)[C@H](CCC(=O)O)NC(=O)CNC(=O)[C@H](Cc2c[nH]c3ccccc23)NC(=O)[C@H](CC(=O)O)NC(=O)[C@H](CCC(N)=O)NC(=O)[C@H](Cc2cn(C)c3ccccc23)NC1=O) [Compound 71] | < 100
Ac-FCI[Trp(1-Me)]QDW[Sar]EHRCTGAES-NH2 (disulfide 2-12; SMILES CC[C@H](C)[C@@H]1NC(=O)[C@@H](NC(=O)[C@H](Cc2ccccc2)NC(C)=O)CSSC[C@@H](C(=O)N[C@H](C(=O)NCC(=O)N[C@@H](C)C(=O)N[C@@H](CCC(=O)O)C(=O)N[C@@H](CO)C(N)=O)[C@@H](C)O)NC(=O)[C@H](CCCNC(=N)N)NC(=O)[C@H](Cc2c[nH]cn2)NC(=O)[C@H](CCC(=O)O)NC(=O)CN(C)C(=O)[C@H](Cc2c[nH]c3ccccc23)NC(=O)[C@H](CC(=O)O)NC(=O)[C@H](CCC(N)=O)NC(=O)[C@H](Cc2cn(C)c3ccccc23)NC1=O) [Compound 72] | < 100
Ac-SEFCI[Trp(1-Me)]QDWGEHRC[Sar]GAES-NH2 (disulfide 4-14; SMILES CC[C@H](C)[C@@H]1NC(=O)[C@@H](NC(=O)[C@H](Cc2ccccc2)NC(=O)[C@H](CCC(=O)O)NC(=O)[C@H](CO)NC(C)=O)CSSC[C@@H](C(=O)N(C)CC(=O)NCC(=O)N[C@@H](C)C(=O)N[C@@H](CCC(=O)O)C(=O)N[C@@H](CO)C(N)=O)NC(=O)[C@H](CCCNC(=N)N)NC(=O)[C@H](Cc2c[nH]cn2)NC(=O)[C@H](CCC(=O)O)NC(=O)CNC(=O)[C@H](Cc2c[nH]c3ccccc23)NC(=O)[C@H](CC(=O)O)NC(=O)[C@H](CCC(N)=O)NC(=O)[C@H](Cc2cn(C)c3ccccc23)NC1=O) [Compound 74] | < 100
Ac-SEFCI[Trp(1-Me)]QDW[Sar]EHRC[Sar]EA-NH2 (disulfide 4-14; SMILES CC[C@H](C)[C@@H]1NC(=O)[C@@H](NC(=O)[C@H](Cc2ccccc2)NC(=O)[C@H](CCC(=O)O)NC(=O)[C@H](CO)NC(C)=O)CSSC[C@@H](C(=O)N(C)CC(=O)N[C@@H](CCC(=O)O)C(=O)N[C@@H](C)C(N)=O)NC(=O)[C@H](CCCNC(=N)N)NC(=O)[C@H](Cc2c[nH]cn2)NC(=O)[C@H](CCC(=O)O)NC(=O)CN(C)C(=O)[C@H](Cc2c[nH]c3ccccc23)NC(=O)[C@H](CC(=O)O)NC(=O)[C@H](CCC(N)=O)NC(=O)[C@H](Cc2cn(C)c3ccccc23)NC1=O) [Compound 76] | < 100
Ac-SEFCI[Trp(1-Me)]QDW[Sar]EHRCTEA-NH2 (disulfide 4-14; SMILES CC[C@H](C)[C@@H]1NC(=O)[C@@H](NC(=O)[C@H](Cc2ccccc2)NC(=O)[C@H](CCC(=O)O)NC(=O)[C@H](CO)NC(C)=O)CSSC[C@@H](C(=O)N[C@H](C(=O)N[C@@H](CCC(=O)O)C(=O)N[C@@H](C)C(N)=O)[C@@H](C)O)NC(=O)[C@H](CCCNC(=N)N)NC(=O)[C@H](Cc2c[nH]cn2)NC(=O)[C@H](CCC(=O)O)NC(=O)CN(C)C(=O)[C@H](Cc2c[nH]c3ccccc23)NC(=O)[C@H](CC(=O)O)NC(=O)[C@H](CCC(N)=O)NC(=O)[C@H](Cc2cn(C)c3ccccc23)NC1=O) [Compound 77] | < 100
Ac-SEFCI[Trp(1-Me)]QDWGEHRC[Sar]E-NH2 (disulfide 4-14; SMILES CC[C@H](C)[C@@H]1NC(=O)[C@@H](NC(=O)[C@H](Cc2ccccc2)NC(=O)[C@H](CCC(=O)O)NC(=O)[C@H](CO)NC(C)=O)CSSC[C@@H](C(=O)N(C)CC(=O)N[C@@H](CCC(=O)O)C(N)=O)NC(=O)[C@H](CCCNC(=N)N)NC(=O)[C@H](Cc2c[nH]cn2)NC(=O)[C@H](CCC(=O)O)NC(=O)CNC(=O)[C@H](Cc2c[nH]c3ccccc23)NC(=O)[C@H](CC(=O)O)NC(=O)[C@H](CCC(N)=O)NC(=O)[C@H](Cc2cn(C)c3ccccc23)NC1=O) [Compound 78] | < 100
Ac-SEFCI[Trp(1-Me)]QDW[Sar]EHRC[Sar]E-NH2 (disulfide 4-14; SMILES CC[C@H](C)[C@@H]1NC(=O)[C@@H](NC(=O)[C@H](Cc2ccccc2)NC(=O)[C@H](CCC(=O)O)NC(=O)[C@H](CO)NC(C)=O)CSSC[C@@H](C(=O)N(C)CC(=O)N[C@@H](CCC(=O)O)C(N)=O)NC(=O)[C@H](CCCNC(=N)N)NC(=O)[C@H](Cc2c[nH]cn2)NC(=O)[C@H](CCC(=O)O)NC(=O)CN(C)C(=O)[C@H](Cc2c[nH]c3ccccc23)NC(=O)[C@H](CC(=O)O)NC(=O)[C@H](CCC(N)=O)NC(=O)[C@H](Cc2cn(C)c3ccccc23)NC1=O) [Compound 79] | < 100
Ac-EFCI[Trp(1-Me)]QDWGEHRC[Sar]EA-NH2 (disulfide 3-13; SMILES CC[C@H](C)[C@@H]1NC(=O)[C@@H](NC(=O)[C@H](Cc2ccccc2)NC(=O)[C@H](CCC(=O)O)NC(C)=O)CSSC[C@@H](C(=O)N(C)CC(=O)N[C@@H](CCC(=O)O)C(=O)N[C@@H](C)C(N)=O)NC(=O)[C@H](CCCNC(=N)N)NC(=O)[C@H](Cc2c[nH]cn2)NC(=O)[C@H](CCC(=O)O)NC(=O)CNC(=O)[C@H](Cc2c[nH]c3ccccc23)NC(=O)[C@H](CC(=O)O)NC(=O)[C@H](CCC(N)=O)NC(=O)[C@H](Cc2cn(C)c3ccccc23)NC1=O) [Compound 80] | < 100
Ac-SEFCI[Trp(1-Me)]QEWGEHRC[Sar]EA-NH2 (disulfide 4-14; SMILES CC[C@H](C)[C@@H]1NC(=O)[C@@H](NC(=O)[C@H](Cc2ccccc2)NC(=O)[C@H](CCC(=O)O)NC(=O)[C@H](CO)NC(C)=O)CSSC[C@@H](C(=O)N(C)CC(=O)N[C@@H](CCC(=O)O)C(=O)N[C@@H](C)C(N)=O)NC(=O)[C@H](CCCNC(=N)N)NC(=O)[C@H](Cc2c[nH]cn2)NC(=O)[C@H](CCC(=O)O)NC(=O)CNC(=O)[C@H](Cc2c[nH]c3ccccc23)NC(=O)[C@H](CCC(=O)O)NC(=O)[C@H](CCC(N)=O)NC(=O)[C@H](Cc2cn(C)c3ccccc23)NC1=O) [Compound 83] | < 100
Ac-SEFCI[Trp(1-Me)]QDWGEHRCSEA-NH2 (disulfide 4-14; SMILES CC[C@H](C)[C@@H]1NC(=O)[C@@H](NC(=O)[C@H](Cc2ccccc2)NC(=O)[C@H](CCC(=O)O)NC(=O)[C@H](CO)NC(C)=O)CSSC[C@@H](C(=O)N[C@@H](CO)C(=O)N[C@@H](CCC(=O)O)C(=O)N[C@@H](C)C(N)=O)NC(=O)[C@H](CCCNC(=N)N)NC(=O)[C@H](Cc2c[nH]cn2)NC(=O)[C@H](CCC(=O)O)NC(=O)CNC(=O)[C@H](Cc2c[nH]c3ccccc23)NC(=O)[C@H](CC(=O)O)NC(=O)[C@H](CCC(N)=O)NC(=O)[C@H](Cc2cn(C)c3ccccc23)NC1=O) [Compound 84] | < 100
Ac-GEFCI[Trp(1-Me)]QDWGEHRC[Sar]EA-NH2 (disulfide 4-14; SMILES CC[C@H](C)[C@@H]1NC(=O)[C@@H](NC(=O)[C@H](Cc2ccccc2)NC(=O)[C@H](CCC(=O)O)NC(=O)CNC(C)=O)CSSC[C@@H](C(=O)N(C)CC(=O)N[C@@H](CCC(=O)O)C(=O)N[C@@H](C)C(N)=O)NC(=O)[C@H](CCCNC(=N)N)NC(=O)[C@H](Cc2c[nH]cn2)NC(=O)[C@H](CCC(=O)O)NC(=O)CNC(=O)[C@H](Cc2c[nH]c3ccccc23)NC(=O)[C@H](CC(=O)O)NC(=O)[C@H](CCC(N)=O)NC(=O)[C@H](Cc2cn(C)c3ccccc23)NC1=O) [Compound 87] | < 100
